Binding signal (% ssDNA ends bound) and binding signal (% ssRNA ends bound) data for two substances are collected here from paper PMC4513882.

The target in the data set is SAMHD1 wt (human) (UniProt Q9Y3Z3). In words: AFM.
Chain of SAMHD1 wt (human) (Q9Y3Z3 whole entry): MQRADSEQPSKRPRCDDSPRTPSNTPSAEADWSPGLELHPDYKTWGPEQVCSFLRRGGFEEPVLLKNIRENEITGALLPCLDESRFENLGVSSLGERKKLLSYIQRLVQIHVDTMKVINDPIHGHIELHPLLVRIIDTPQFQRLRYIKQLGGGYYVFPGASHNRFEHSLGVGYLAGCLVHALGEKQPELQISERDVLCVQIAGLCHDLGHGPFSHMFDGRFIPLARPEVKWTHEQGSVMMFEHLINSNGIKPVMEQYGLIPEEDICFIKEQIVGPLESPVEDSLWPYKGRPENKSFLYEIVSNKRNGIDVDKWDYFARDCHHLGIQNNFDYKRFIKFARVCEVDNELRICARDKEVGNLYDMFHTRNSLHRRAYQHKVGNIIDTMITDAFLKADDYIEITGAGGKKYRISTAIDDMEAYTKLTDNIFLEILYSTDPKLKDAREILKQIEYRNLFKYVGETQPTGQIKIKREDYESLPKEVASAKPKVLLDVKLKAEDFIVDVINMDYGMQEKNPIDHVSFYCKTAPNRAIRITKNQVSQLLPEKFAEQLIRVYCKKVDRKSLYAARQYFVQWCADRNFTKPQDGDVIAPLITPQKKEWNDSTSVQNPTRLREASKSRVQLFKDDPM

The substance “AFM DNA, 295 bp duplex with 60 nt ssDNA overhang” displayed a binding signal (% ssDNA ends bound) of 26.

As to “GGUUAUUCUCUUAUUUAUUCUAUCUAUCUCUCUCUUCUCUAUUUCCUCACAUCCUCUCUCACUCUCUAUCUCUAUCUCCUCUCUCUUCUCUCUCUCUCUCUCUCCUCUCUAUAUUCUUCUCUCUUCUCUCCUCUCCUCUCUCUCUCUCUUUAUUCUUCCACUUUUUUCCUUCUCACUUCUCUUCUUCUUUAUUCUUCUCAUCUCAUCUCAUCUCAUCUCAUCUCAUCUCAUCUCAUCUCAUCUCAUCUCAUCUCAUCUCAUCUCAUCUCAUCUCAUCUCAUCUCAUCUCAUCUCAUCUCAUCUCAGG / TGAGAAGAATAAAGAAGAAGAGAAGTGAGAAGGAAAAAAGTGGAAGAATAAAGAGAGAGAGAGAGGAGAGGAGAGAAGAGAGAAGAATATAGAGAGGAGAGAGAGAGAGAGAGAAGAGAGAGGAGATAGAGATAGAGAGTGAGAGAGGATGTGAGGAAATAGAGAAGAGAGAGATAGATAGAATAAATAAGAGAATAACC [AFM RNA, 200 bp RNA:DNA duplex with 102 nt ssRNA overhang]”, the binding signal (% ssRNA ends bound) turned out to be 84.
